Results from article PMC7450108, “Pterocarpan synthase (PTS) structures suggest a common quinone methide–stabilizing function in dirigent proteins and proteins with dirigent-like domains” (The Journal of Biological Chemistry, 2020).

Tests used:
[1] = system: COc1ccc([C@H]2COc3cc(O)ccc3[C@@H]2O)c(O)c1; assay: medicarpin formation, chiral HPLC (RU-2); format: biochemical, Glycyrrhiza echinata; settings: 0.1 M sodium phosphate pH 6.6, 30 °C, 5 min, BSA, racemic trans-DMI supplied
From the text: (§1) medicarpin formation, chiral HPLC (RU-2) on GePTS1

[2] = system: COc1ccc([C@@H]2COc3cc(O)ccc3[C@@H]2O)c(O)c1; assay: medicarpin formation, chiral HPLC (RU-2); format: biochemical, Glycyrrhiza echinata; settings: 0.1 M sodium phosphate pH 6.6, 30 °C, 5 min, BSA, racemic cis-DMI supplied
From the text: as §1

[3] = system: COc1ccc([C@H]2COc3cc(O)ccc3[C@@H]2O)c(O)c1; assay: purified protein; settings: 0.1 M sodium phosphate pH 6.6, 30 °C, 5 min, BSA, racemic trans-DMI supplied, kinetics calculated on (3S,4R) conversion
[4] = system: COc1ccc([C@@H]2COc3cc(O)ccc3[C@@H]2O)c(O)c1; assay: purified protein; settings: 0.1 M sodium phosphate pH 6.6, 30 °C, 5 min, BSA, racemic cis-DMI supplied, kinetics calculated on (3R,4R) conversion
[5] = (3S,4R) converted, pET100 construct
[6] = (3R,4R) converted, pET100 construct
[7] = kinetics calculated on (3S,4R) conversion
[8] = kinetics calculated on (3R,4R) conversion

Substance | Km [1, 5] | kcat [1, 5] | kcat/Km [1, 5] | Km [2, 6] | kcat [2, 6] | kcat/Km [2, 6] | other results
GePTS1 (Glycyrrhiza echinata; Y181F) | 5,665 μM | 4 s⁻¹ | 710 M⁻¹ s⁻¹ | 825 µM | 5.2 s⁻¹ | 6310 M⁻¹ s⁻¹ | 
GePTS1 (Glycyrrhiza echinata; Y103F) | 3,320 μM | 5.9 s⁻¹ | 1830 M⁻¹ s⁻¹ | 555 µM | 6.9 s⁻¹ | 12300 M⁻¹ s⁻¹ | 
GePTS1 (Glycyrrhiza echinata; D50A) | 520 µM | 0.2 s⁻¹ | 370 M⁻¹ s⁻¹ | 1,175 μM | 4.9 s⁻¹ | 4180 M⁻¹ s⁻¹ | 
PsPTS1 (Lathyrus oleraceus) |  |  |  |  |  |  | Km [3]: 830 µM; kcat [3]: 3.3 s⁻¹; kcat/Km [3]: 3930 M⁻¹ s⁻¹; Km [4]: 890 µM; kcat [4]: 50.5 s⁻¹; kcat/Km [4]: 56800 M⁻¹ s⁻¹
GePTS1 (Glycyrrhiza echinata) |  |  |  |  |  |  | Km [1, 7]: 680 µM; kcat [1, 7]: 15.9 s⁻¹; kcat/Km [1, 7]: 23400 M⁻¹ s⁻¹; Km [2, 8]: 145 µM; kcat [2, 8]: 59.9 s⁻¹; kcat/Km [2, 8]: 413000 M⁻¹ s⁻¹
GePTS1 (Glycyrrhiza echinata; D83A) | 665 µM | 1.3 s⁻¹ | 1960 M⁻¹ s⁻¹ | 1,300 μM | 6.3 s⁻¹ | 4870 M⁻¹ s⁻¹ | 
